# Test results reported in the supplement of paper PMC12455559.
# ± gives the standard deviation of the averaged measurements.
# Key:
# [1] = PET hydrolysis, aromatic products released after 48 h (umol product/mg enzyme); higher = more PET depolymerization activity
# Procedure, shortened: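 Tagless, SUMO-cleaved candidate enzymes were purified on nickel beads, and 5 μg (50 μL) was added to 3.5 mg amorphous PET film or crystalline PET powder in 450 μL buffer. Buffers were 50 mM NaCitrate (pH 4.5, 5.5), 50 mM NaPhosphate (pH 6.5, 7.5) or glycine (pH 8.5). Sealed plates were incubated 48 h at 40 or 60 °C without shaking. PET hydrolysis activity is the aromatic product in the supernatant, read by absorbance at 260 and 280 nm against buffer blanks and expressed per mg enzyme.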
# [2] = purified protein yield per well (BCA); higher = higher soluble expression
# Procedure, shortened: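 On an OT-2 robot, lysed cells were processed by binding protein to Ni-charged magnetic beads and releasing it with SUMO protease. Expression took place in E. coli C41(DE3), in 2 mL autoinduction cultures with 100 µg/mL kanamycin, for 2 h at 37 °C followed by 40 h at 18 °C. The Pierce Rapid Gold BCA kit was used to quantify purified protein yield in each well, with values under 25 ug (0.1 mg/mL) below the detection threshold.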
# [3] = melting temperature (DSF); higher = more thermostable
# Procedure, shortened: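 Values are melting temperatures from differential scanning fluorimetry. Candidate enzymes were expressed in E. coli C41(DE3), purified on nickel beads and freed by SUMO protease cleavage. In sealed PCR plates on a Bio-Rad CFX96, 45 μL enzyme (0 to 0.3 mg/mL) was combined with 5 μL 5X Sypro Orange. Fluorescence was recorded from 25 °C for 250 cycles, rising 0.3 °C per cycle at a ramp of 0.3 °C/s.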
# [4] = substrate: cryPow, 40 °C, pH 4.5
# [5] = substrate: cryPow, 40 °C, pH 5.5
# [6] = substrate: cryPow, 40 °C, pH 6.5
# [7] = substrate: cryPow, 40 °C, pH 7.5
# [8] = substrate: cryPow, 60 °C, pH 4.5
# [9] = substrate: cryPow, 60 °C, pH 5.5
# [10] = substrate: cryPow, 60 °C, pH 6.5
# [11] = substrate: cryPow, 60 °C, pH 7.5
# [12] = substrate: cryPow, 40 °C, pH 8.5
# [13] = substrate: cryPow, 60 °C, pH 8.5
# [14] = substrate: aFilm, 40 °C, pH 5.5
# [15] = substrate: aFilm, 40 °C, pH 6.5
# [16] = substrate: aFilm, 40 °C, pH 7.5
# [17] = substrate: aFilm, 60 °C, pH 5.5
# [18] = substrate: aFilm, 60 °C, pH 6.5
# [19] = substrate: aFilm, 60 °C, pH 7.5
# [20] = substrate: aFilm, 40 °C, pH 4.5
# [21] = substrate: aFilm, 60 °C, pH 4.5
Sequence,"PET hydrolysis [1, 4]","PET hydrolysis [1, 5]","PET hydrolysis [1, 6]","PET hydrolysis [1, 7]","PET hydrolysis [1, 8]","PET hydrolysis [1, 9]","PET hydrolysis [1, 10]","PET hydrolysis [1, 11]",purified protein yield per well [2],melting temperature [3],"PET hydrolysis [1, 12]","PET hydrolysis [1, 13]","PET hydrolysis [1, 14]","PET hydrolysis [1, 15]","PET hydrolysis [1, 16]","PET hydrolysis ([1]; substrate: aFilm, 40 °C, pH 8.5)","PET hydrolysis [1, 17]","PET hydrolysis [1, 18]","PET hydrolysis [1, 19]","PET hydrolysis ([1]; substrate: aFilm, 60 °C, pH 8.5)","PET hydrolysis [1, 20]","PET hydrolysis [1, 21]"
ADNPYQRGPAPTAASIAADRGPFATAQVTVPRGNGFGGGVIYYPTDTSQGTFGAIAIAPGFGTAWSYYAWQGPRLASFGFVVIGIETNTLNDYADARAAQLLAALDYLVNSSSVRDRVDRNRLAVGGHSMGGGGAILAANQRPSLLTAVGQAPYVPDGSLSGIKSPTIIFAGQADGTVTPQYAQNAYNTIPGSVERAYVEIANEGHGFPAGGGGGNSGAFARTMMVWLKLFVDKDTRYAPFLCPSLTNANGISKYMASCPLDPPGGGPTASPTSTPTSTPTSTPTSTPTGTPPAGGTSALRGVASGRCLDVNGASQANGATVLIWDCNGQNNQKWTSTSAGELRVYGNKCLDVNGGGTADGSAVIIWDCNGQSNQKWRLNSDGSITAVGANKCLDVSGNGTANGTRVQIWSCTGGTNQKWTRV [ESM010],< 3,3,4,5,< 3,< 3,< 3,< 3,79.7 µg,64.6 C,,,,,,,,,,,,
ADNPYQRGPAPTAASISADTGPFATATTVAEGTGFGGATIYYPTDTSQGTFGAIGMLPGWTAPWSAYAWLGPRLASQGFVVIGVDTNDPNDYPAARATQVLAALDHLTESSAVRDRVDPDRLAVAGHSMGGGGSLEAALSRPSLKAVYGIEPYDDITSDFSNLTVPTFIQAGQDDTLVTPSYLESLYATLPSTSEHAYLEIAGADHMFVGSPNVILARTLISWMKIFVDDDTRYTQFLCPLSDDSGVSQYRNTCPLTPGGSTGSPTATAPSPPASSSNPPGTPSSPAPTDGTCRVTYTTNAWDSGLTASVTIANTGTTASTGWSLAFTLPDGQTITSGWNATYSPSSGQVTATGVSHNATIPAGESINIGFQATHTGDTGAPTTFALNGQTCTIT [DP021],,5,< 3,< 3,,< 3,< 3,< 3,170 µg,47.5 C,< 3,< 3,,,,,,,,,,
ADNPYQRGPAPTNTSIEATRGTYAVSTKTISALSARGFGGGTIYYPTSTADGTFGVVAISPGYTASQSTIAWLGPRLASFGFVVVTIDTTTRYDQPTSRGSQLLAALDQAIGDSTVGPRIDATRQAVVGHSMGGGGTLEAAKTRRSLEAAVPLTGWNLDKTWPEVEAATLVIGAQNDTVAPTTSHSIPFYNSLSGAERKAYLELRGASHFAPVTSNTTIAKHTLSWLKRYVDDDTRYEQFISPGPSTAIGSPVSDYRVN [DP022],,< 3,< 3,< 3,,< 3,< 3,< 3,215 µg,35.8 C,< 3,< 3,< 3,< 3,< 3,< 3,< 3,< 3,< 3,< 3,,
ADNPYQRGPDPSRTSVATETGPFANASVSVPTGYGFNGGRIYYPTDSSQGTFGAIAISPGYTALFSAELAWMGPWLASHGFVVIGIETNSRNDFDTARGTQLLAALDYLTQQSPVRDRVDPNRLAVAGHSMGGGGALSAAVRRSSLKAAVGIAPYSPSSNLANDRVPTMVFSGQADTVVTPSYAIGLYNSLPTTTESVYLEVAGADHGFMVGRSNPVMIRTMLPFVKMFIDNDTRYSQFLCPLLDSSGVVTYRSTCPLLPTTPTTPPVNPTTPPVNPTVSPTGAPGSASEIVGVQSGRCVDVPNASRTNGTRVQLYDCNRQSQQSWTYTSGRQLRVYGDMCLDAAGSGNGAAVQIYACHSQTNQQWNVNSNGTISGVQSGRCLDVWSTANGAQVQLYDCHGQTNQRFNVMPLAR [TEP092],5,10,8,3,< 3,< 3,< 3,< 3,154 µg,60.4 C,,,,,,,,,,,,
ADNPYQRGPDPTAASIAAVTGPFATASVTVPRGNGFGGGVIYYPTDTSQGTFGGIAISPGLNGTWPGIAWLGPRLASQGFVVFGIETNNLNDSPTSRGTQLLAALDYLTGSSSVRTRVDAGRLAVAGHSMGGGGALDAALRRPSLRATIGNAPHLPSGSLANDRVPTLIYAMQNDTLVPPSRLTSLYNTVPATTERGYLEITGAGHNYIGQPSTILARTMIPWLKIFVDDDARYSQFLCPLTDRSGISQYQSSCPLITTSPTTGPTAQPTTAAPTTTPTTPPVGGPCEATHRTVNSWSGGYQGEVTVRAGSAAINGWTVSWTLGSGQTINQVWGGALTASGTAATVRNETWNGPVAAGASTTFGYIATGNAPTQPLACSAR [ESM060],< 3,11.5 ± 2.1,24.5 ± 2.1,38 ± 1.4,< 3,< 3,5.5 ± 0.71,12.5 ± 0.71,279 µg,58.6 C,,,< 3,1.5 ± 2.1,8 ± 1.4,,< 3,< 3,< 3,,< 3,< 3
ADNPYQRGPDPTAASVTAVNGPFANTSVSVPTGYGFNGGRIYYPTDTSQGTFGAIAISPGYTALFSAELAWMGPWLASHGFVVIGIETNSRNDFDTARGTQLLAALDYLTQQSPVRDRVDPNRLAVAGHSMGGGGALSAATRRPSLKAVVGIAPYSPSSNLANDRVPTMIFAGQADTVVTPSYATGLYNSLPTTTESTYLEVAGADHGFMVGRSNPVLVRTMLPFVKMFLDNDARYSQFLCPLLDNSGVVTYRSTCPLLPSTPTSPTPTTTPTSTPTPTPTVTPTTPPGSASQIVGTQSGRCVDVPNASRTNGTRVHLWDCNRQANQAWTYTANKQLQVYGTMCLDAAGTGNGAAVQIYSCHGQTNQQWNVNSNGTISSVQSGRCLDVWSTANGAQVQLYDCHGQTNQQFRLTALN [ESM130],< 3,6,3,< 3,< 3,< 3,< 3,< 3,138 µg,58 C,,,,,,,,,,,,
ADNPYQRGPDPTAESVRASRGTFATTQVTVPAGNGFGGGVIYHPTDTSQGTFGAVAIVPGYTATWAAEGAWMGHWLASFGFVVIGVDTINRNDWDTARGTQLLAALDYLTQQSPVRNRVDASRAAVMGHSMGGGGAMSAALRRPSLKAAVGLAPFSPSQNLTNTRVPTMLIAGQNDGTTTPASISTLYNGIPASTESAYLEFAGAGHGFPTSNNPLMMRVVIPWLKIFVDNDTRYSQFLCPLTDRTGITQYRSTCPLTPPGAPTSPPTTTAPPTPTTSPSVTPSTSPSATPTTPAPDGACRATYRTTNSWPGGYQAEVTVTAGNSPINGWTVRWTLGSGQSISQVWNGTLTTSGSAVTVRNVSYNGSLQPGTSTTFGFIGGGTPSTPVLACVSP [ESM018],< 3,3,11 ± 1.4,30 ± 1.4,< 3,< 3,7 ± 9.9,< 3,530 µg,61.3 C,,,< 3,< 3,< 3,,< 3,< 3,< 3,,< 3,< 3
ADNPYQRGPDPTLASVAANRGTFATAQLSVPGDGFGSGVIYYPTDTSQTFGAVAIVPGYSALFSVEEAWMGHWLASFGFVVIGIETISRSDSADARATQLLAALDYLTQRSSVRSRVDASRLSIIGHSAGGAGVLTAVLRRPTLKAAVGLAPGSPVGNYNLSSDRVPTMFISGQRDTTVSQSYLNGIYPTIPASTPSAWVELTGGDHLFPTRANTNMMRVLIPWLKIFVDNDTRYTQFLCPLMDSSGISMYRNKCPYVPTSPSPSPSTSPSPSVSPSPSPSASPSPSPSPSTSPSPQPSGACSATYRTVNSWSGGYQAEVTVTAGSSAINRWSVRWTLSSGQSISQVWNGTLSAGGSSVTVANASYNGSLPASGTTTFGFLANGAPSTPTLTCTSP [ESM034],< 3,< 3,< 3,< 3,< 3,< 3,< 3,< 3,392 µg,59.8 C,,,< 3,< 3,< 3,,< 3,< 3,< 3,,< 3,< 3
ADNPYQRGPDPTLASVAASRGPFATTQATVPPGNGFNGGYVYYPTDTSLGTWGAVAIVPGYSALFANEEAWMGPWLASFGFVVLGIETNSRNDGADARATQLLAALDYLTQSSPVRNRVDPNRLSVMGHSAGGAGTLMAALRRPSLKTAVGLAPGAPGNSLNMSTTKVPTMLISGQNDGTVTPSYVQGIYNTLPASVEHAWAELAGNDHLSFTRPNPTEMRILIPWLKIFLDNDTRYTQFLCPLADSTGVSRYNSTCPLVPPGVPTSPPTTPPTSTPPPTGPPTSPPPPTTTPPPAGGACTATYRTVGSWSGGFQGEVTVTAGSAAINGWTVRLDLGGGQSISQVWNGTLSTSGSTATVRNVSYNGSLAAAGSTTFGFLGSGTPPAPTPTCTSP [ESM005],< 3,< 3,< 3,< 3,< 3,< 3,< 3,< 3,88.4 µg,67 C,,,,,,,,,,,,
ADNPYQRGPDPTLASVAASRGTFATAQVNVPGGNGFASGVIYYPTDTTQGTFGAVAIVPGYSALFANEEAWMGPWLASFGFVVIGIETNSRTDSADARGTQLLAALDYLTQRSPVRDRVDPNRLSVVGHSAGGAGVLSAVVRRPSLKAAIGLAPGSPVGNYDLSTAKVPTMFISGQRDTTVTQSYLNGLYSTIPAALPSAWVEIAGVDHLFATRANNTEMRVLIPWLKIWLDNDTRYPQFLCPLMDSTNISMYRNKCPYVPPGGGPSPSPSATPSPSVTPSPSPSPSPSPSPSPSPTPTPGACTATYRTVNSWGGGYQGEVTVKAGASAVNGWTVRWTLNAGQTVSQVWNGTLSTSGSSVTVKNASYNGSLPPAGTTVFGFLANGTPATPALTCASP [ESM009],< 3,< 3,< 3,< 3,< 3,< 3,< 3,< 3,358 µg,58.6 C,,,,,,,,,,,,
